Laboratory results taken from paper PMC7861550.

B1: unnamed (parent)
chain: MDIDPYKEFGATVELLSFLPSDFFPSVRDLLDTASALYREALESPEHCSPHHTALRQAILCWGELMTLATWVGVNLEDPASRDLVVSYVNTNMGLKFRQLLWFHISCLTFGRETVIEYLVSFGVWIRTPPAYRPPNAPILSTLPETTVVRRRGRSPRRRTPSPRRRRSQSPRRRRSQSRESQC

Variants of: B1
Assay: capsid assembly (Ca assem)
Conditions: with partner chain of the complex shown

Variant | ratio to parent
chain 1 L143A | 1.05
chain 1 L143I | 0.97
chain 1 E145D | 1.05
chain 1 T146A T147A | 1.08
chain 1 L140A | 1.32
chain 1 S141R | 1.16
chain 1 S141A | 1.03
chain 1 S141D | 1.11
chain 1 S141T V148I V149I | 0.98
chain 1 T146D T147D | 1.06
